Experimental data published in PMC7111185 (Biochemical and Biophysical Research Communications, 2004).

Target: 30a-HR1 (His-tagged heptad repeat 1 region of SARS-CoV spike protein, amino acids 898-1005) (SARS-CoV, UniProt P59594 898-1005)
Experiment: pull-down

GDISGINASVVNIQKEIDRLNEVAKNLNESLIDLQELG (domain or fragment) [GST-HR2-38 (GST fusion of SARS-CoV spike HR2, amino acids 1149-1186)]
binding result: binds
